Experimental data as given in publication PMC3162248.

B1: Nmnat1 (mouse Nmnat1) (Mus musculus) (protein)
chain: MDSSKKTEVVLLACGSFNPITNMHLRLFELAKDYMHATGKYSVIKGIISPVGDAYKKKGLIPAHHRIIMAELATKNSHWVEVDTWESLQKEWVETVKVLRYHQEKLATGSCSYPQSSPALEKPGRKRKWADQKQDSSPQKPQEPKPTGVPKVKLLCGADLLESFSVPNLWKMEDITQIVANFGLICITRAGSDAQKFIYESDVLWRHQSNIHLVNEWITNDISSTKIRRALRRGQSIRYLVPDLVQEYIEKHELYNTESEGRNAGVTLAPLQRNAAEAKHNHSTL
B2: Nmnat1 (mouse Nmnat1) (Mus musculus; W170A) (protein)
chain: MDSSKKTEVVLLACGSFNPITNMHLRLFELAKDYMHATGKYSVIKGIISPVGDAYKKKGLIPAHHRIIMAELATKNSHWVEVDTWESLQKEWVETVKVLRYHQEKLATGSCSYPQSSPALEKPGRKRKWADQKQDSSPQKPQEPKPTGVPKVKLLCGADLLESFSVPNLAKMEDITQIVANFGLICITRAGSDAQKFIYESDVLWRHQSNIHLVNEWITNDISSTKIRRALRRGQSIRYLVPDLVQEYIEKHELYNTESEGRNAGVTLAPLQRNAAEAKHNHSTL
B3: Nmnat1 (mouse Nmnat1) (Mus musculus; H24A) (protein)
chain: MDSSKKTEVVLLACGSFNPITNMALRLFELAKDYMHATGKYSVIKGIISPVGDAYKKKGLIPAHHRIIMAELATKNSHWVEVDTWESLQKEWVETVKVLRYHQEKLATGSCSYPQSSPALEKPGRKRKWADQKQDSSPQKPQEPKPTGVPKVKLLCGADLLESFSVPNLWKMEDITQIVANFGLICITRAGSDAQKFIYESDVLWRHQSNIHLVNEWITNDISSTKIRRALRRGQSIRYLVPDLVQEYIEKHELYNTESEGRNAGVTLAPLQRNAAEAKHNHSTL

Assays:
[1] = substrate: NC(=O)c1ccc[n+]([C@@H]2O[C@H](COP(=O)(O)O)[C@@H](O)[C@H]2O)c1; assay: purified protein; format: biochemical, Mus musculus; conditions: 1 mM ATP, 20 mM MgCl2, 20 mM HEPES-KOH pH 7.4, 37°C
[2] = substrate: Nc1ncnc2c1ncn2[C@@H]1O[C@H](COP(=O)(O)OP(=O)(O)OP(=O)(O)O)[C@@H](O)[C@H]1O; assay: purified protein; format: biochemical, Mus musculus; conditions: 1 mM NMN, 20 mM MgCl2, 20 mM HEPES-KOH pH 7.4, 37°C

Row | Protein | Km [1] | Km [2]
1 | B1 | 27.6 µM | 50.4 µM
2 | B2 | 1400 µM | 
3 | B3 |  | 47.3 µM
